{"source": "paper PMC11339404", "binders": {"B1": {"name": "Cy3-dT60-Cy5 (ssDNA)", "DNA": "TTTTTTTTTTTTTTTTTTTTTTTTTTTTTTTTTTTTTTTTTTTTTTTTTTTTTTTTTTTT"}}, "assay_in_all_cases": "FRET", "key": {"[1]": {"target": "T1, SWSAP1-SWS1 (human, UniProt Q6NVH7;Q19AV6 1-250;1-140)", "T1 sequence 1": "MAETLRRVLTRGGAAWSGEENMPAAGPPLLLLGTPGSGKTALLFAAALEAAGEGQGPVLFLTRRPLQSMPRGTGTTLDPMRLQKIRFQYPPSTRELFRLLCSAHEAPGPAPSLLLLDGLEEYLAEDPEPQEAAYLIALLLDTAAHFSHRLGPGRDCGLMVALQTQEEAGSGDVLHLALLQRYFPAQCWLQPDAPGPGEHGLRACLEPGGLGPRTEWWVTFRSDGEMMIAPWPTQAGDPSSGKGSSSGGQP", "T1 sequence 2": "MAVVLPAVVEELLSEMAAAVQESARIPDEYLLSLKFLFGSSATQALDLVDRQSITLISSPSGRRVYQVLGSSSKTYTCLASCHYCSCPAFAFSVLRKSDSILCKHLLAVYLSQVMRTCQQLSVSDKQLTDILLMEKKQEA"}, "[2]": {"target": "RPA (human, UniProt P27694;P15927;P35244 1-616;1-270;1-121)", "sequence (P27694 whole entry, chain 1 of 3)": "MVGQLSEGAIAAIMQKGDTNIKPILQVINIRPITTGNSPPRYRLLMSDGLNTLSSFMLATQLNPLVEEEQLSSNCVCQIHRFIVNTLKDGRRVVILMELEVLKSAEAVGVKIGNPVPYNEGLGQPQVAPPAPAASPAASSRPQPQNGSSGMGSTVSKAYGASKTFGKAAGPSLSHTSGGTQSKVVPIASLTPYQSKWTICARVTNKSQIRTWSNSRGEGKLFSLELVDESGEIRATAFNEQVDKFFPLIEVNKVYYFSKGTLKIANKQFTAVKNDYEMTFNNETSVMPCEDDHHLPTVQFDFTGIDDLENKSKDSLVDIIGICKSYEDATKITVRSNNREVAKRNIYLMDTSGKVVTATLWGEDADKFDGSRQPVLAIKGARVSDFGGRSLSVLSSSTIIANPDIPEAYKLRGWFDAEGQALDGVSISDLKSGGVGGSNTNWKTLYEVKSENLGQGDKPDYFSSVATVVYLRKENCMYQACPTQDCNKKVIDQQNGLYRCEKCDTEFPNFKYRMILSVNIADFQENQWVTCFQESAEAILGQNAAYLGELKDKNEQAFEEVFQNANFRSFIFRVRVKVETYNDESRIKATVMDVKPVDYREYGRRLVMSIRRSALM", "sequence (P15927 whole entry, chain 2 of 3)": "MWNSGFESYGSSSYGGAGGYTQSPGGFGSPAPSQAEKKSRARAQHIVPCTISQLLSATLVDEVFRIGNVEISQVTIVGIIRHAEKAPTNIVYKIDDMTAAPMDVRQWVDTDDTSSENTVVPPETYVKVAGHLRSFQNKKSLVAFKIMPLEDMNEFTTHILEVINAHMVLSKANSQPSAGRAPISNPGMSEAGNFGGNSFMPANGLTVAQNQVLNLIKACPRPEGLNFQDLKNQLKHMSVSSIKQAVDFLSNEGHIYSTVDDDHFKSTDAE", "sequence (P35244 whole entry, chain 3 of 3)": "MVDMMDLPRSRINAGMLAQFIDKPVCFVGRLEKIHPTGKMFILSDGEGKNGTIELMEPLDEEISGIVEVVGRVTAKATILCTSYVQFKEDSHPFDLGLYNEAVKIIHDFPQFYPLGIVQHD"}, "[3]": {"target": "RAD51;SWSAP1-SWS1 (human;human, UniProt Q06609;Q6NVH7;Q19AV6 1-339;1-250;1-140, |)", "sequence (Q06609 whole entry, one chain of several)": "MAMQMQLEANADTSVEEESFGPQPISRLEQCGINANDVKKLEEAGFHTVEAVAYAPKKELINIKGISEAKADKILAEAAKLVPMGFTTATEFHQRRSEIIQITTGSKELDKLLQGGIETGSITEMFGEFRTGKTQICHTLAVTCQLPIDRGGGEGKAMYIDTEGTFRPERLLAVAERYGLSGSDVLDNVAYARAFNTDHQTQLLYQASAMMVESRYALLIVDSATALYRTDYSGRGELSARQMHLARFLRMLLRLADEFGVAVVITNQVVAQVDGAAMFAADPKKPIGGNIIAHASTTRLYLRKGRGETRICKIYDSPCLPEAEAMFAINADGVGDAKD"}, "[4]": {"target": "RAD51 (human, UniProt Q06609 1-339)", "sequence (Q06609 whole entry)": "as the sequence (Q06609 whole entry, one chain of several) above"}}, "data": [{"binder": "B1", "values": [{"measurement": "binding result", "setting": "[1]", "value": "no binding"}, {"measurement": "binding result", "setting": "[2]", "value": "binds"}, {"measurement": "binding result", "setting": "[3]", "value": "binds"}, {"measurement": "binding result", "setting": "[4]", "value": "binds"}]}]}
